Test results reported in patent US7291601B1, “Arginine-rich anti-vascular endothelial growth factor peptides that inhibit growth and metastasis of human tumor cells by blocking angiogenesis” (Korea Greencross Corp., priority 1999, dated 2007).
Several values for one entry are separate records, joined by “and”; a condition that tells them apart may be missing. Equal values may be shown once. Entries after “also recorded” stand apart in the source; their conditions may differ. Read-outs that look alike come from different tables or passages of the source.

How the values were obtained:
[1] = test system: HT1080 (human fibrosarcoma); test: Egg CAM assay, angiogenesis induced by VEGF-secreting cancer cells; type: in vivo; details: egg CAM, 10^5 HT1080 cells/egg with 0.1 μg peptide; for Angiogenic activity(%): (standard deviation)
Description: An experiment using egg CAM was carried out to confirm the inhibitory activity of the screened peptides against the angiogenesis induced by cancer cells, which secrete VEGF. Fertilized eggs were deprived of albumin and windows were formed on the eggs as in above. 10^5 cells of HT1080 (human fibrosarcoma) were mixed with 7.5 μg of Type I collagen (rat tail, Beckton Dickinson, USA) within a volume of 5 μl and dropped onto ¼ fraction pieces of Thermanox coverslips to give collagen sponges. After being covered with the collagen sponges, 10-day embryonic egg CAM was incubated at 37° C. for 3 days. Blood vessels induced by the cancer cells were observed and photographed as in above (see Table 6 and FIG. 12).

[2] = test system: HM7 (human colon carcinoma cell line); test: Liver metastasis of HM7 cells transplanted into the spleen of nude mice; type: in vivo
Source text: In order to conduct an experiment concerning the metastasis of cancer cells to the liver, cancerous cells were transplanted into the spleen. In this regard, after being anesthetized with diethyl ether, 4-week-old male mice (athymic nude mice, BALB/c/nu/nu, Charles River, Japan) underwent flank incision. […] Four weeks after the injection, the liver was excised from each mouse and measured for weight and the size and number of metastatic nodules formed. Each test group was composed of 6-7 mice. In a student's t-test, a p value less than 0.05 was regarded as being statistically significant. In the test using tetrazolium dye (cell titer 96 Non-radioactive Proliferation Assay Kit, Promega), each peptide was evaluated to have no influence on the growth of the cancer cells (5×10^3 cells/well), so that the possibility that the toxicity of the peptide themselves might inhibit the growth and metastasis of cancer cells could be excluded.

[3] = test system: egg CAM (chorioallantoic membranes); test: Egg CAM assay, angiogenesis induced by VEGF; type: in vivo
Description: Fertilized eggs (Pulmuwon, Korea) were incubated at 37° C. under a humidity of 90%. After three days of culturing, the eggs were deprived of about 2 ml of albumin. After four days, eggs were partially deprived of the sheath to make a window with a size of 2×2 cm.
After VEGF (10 ng/egg) was mixed with various amounts of peptides or other samples, 3 μl of each mixture was dropped onto ¼ fraction pieces of thermanox coverslips (Nunc) and dried. The pieces were placed on CAM of 9-day embryonic eggs.
Two days later, the samples were independently observed under anatomical microscopes by two different persons to determine whether new blood vessels are induced by the dropped samples or not. In this regard, the experiment was repeated at least three times using 10 or more eggs per sample and the results are given in Table 5, below.

VEGF = target: T1, VEGF (Homo sapiens, UniProt P15692); test: Inhibition of 125I-labeled VEGF binding to its receptors on HUVEC; details: 10 μM peptide (FIG. 6)
T1 sequence (P15692 27-191 isoform P15692-4): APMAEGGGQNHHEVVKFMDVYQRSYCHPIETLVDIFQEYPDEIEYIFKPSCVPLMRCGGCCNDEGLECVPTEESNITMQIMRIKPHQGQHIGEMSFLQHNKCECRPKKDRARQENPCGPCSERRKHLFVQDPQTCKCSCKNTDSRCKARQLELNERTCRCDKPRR
Description: Then, the cells were transferred to a medium (Medium 199/25 mM HEPES, pH 7.4/0.1% bovine serum albumin) containing 0.2 ng of ^125I-labeled VEGF and various concentrations of peptides or combinatorial peptide libraries and reacted at 4° C. for 3 hours. The cells were washed twice with the same medium and once with PBS containing 0.1% albumin to remove the labeled VEGF which still remained uncombined. Thereafter, to quantify the labeled VEGF which bound to receptors present on the surface of the vascular endothelial cells, the cells were treated with 0.5 ml of a lysis solution (20 mM Tris-HCl, pH 7.4/1% TritonX-100) for 20 min, followed by measuring the resulting lysate for radioactivity with the aid of a γ-counter.
The sequence of each peptide was indirectly decided through the analysis of amino acid compositions and its concentration was determined, after which 12 peptides were assayed for antagonism toward VEGF binding at various concentrations (1, 4, 10, and 20 μM/sequence).

[4] = target: VEGF receptors present on the surface of HUVEC; test: Binding of 125I-labeled VEGF165 to HUVEC, Scatchard analysis; set-up: species or system human
Description: First, HUVEC (human umbilical vein endothelial cells) (Clonetics) were placed on gelatin-coated 100 mm dishes (Falcon) containing a vascular endothelial cell culture medium (Medium 199+20% BCS, 5 μg/ml of heparin, 6 μg/ml of endothelial cell growth supplement, 5 ng/ml of basic fibroblast growth factor) and cultured at 37° C. in a CO2 incubator for animal cell culture. After a certain period of time, the cells were treated with trypsin/EDTA. After centrifugation, the cells harvested were suspended in a fresh, vascular endothelial cells culture medium and aliquoted at a density of 5×10^4 cell/well to a 24 well plate (Costar Co.). […] Thereafter, to quantitatively determine the amount of the labeled VEGF which bound to receptors present on the surface of the vascular endothelial cells, the cells were treated with 0.5 ml of a lysis solution (20 mM Tris-HCl, pH 7.4/1% TritonX-100) for 20 min, followed by measuring the resulting lysate for radioactivity with the aid of a γ-counter. As for the non-specific binding, it was determined from a cell group cultured in the presence of a mixture of the labeled VEGF and non-labeled VEGF in a molar ratio of 1:100. […]
The measurement results are shown in FIGS. 1a and 1b in which radioactivity is plotted versus time and concentration, respectively.

[5] = target: VEGF receptors present on the surface of HUVEC (human umbilical vein endothelial cells) (human); test: Scatchard analysis of 125I-VEGF165 binding to HUVEC; the kind of receptor at about 2,000 per cell
[6] = test system: HM7 (human colon carcinoma cell line); test: Subcutaneous HM7 tumor growth in athymic nude mice; type: in vivo; details: after 15 days of subcutaneous injection
Description: From the next day, a solution of each peptide in PBS (0.5 μg/100 μl/day) was subcutaneously injected to the mice for 15 days. Sizes of the tumors thus formed were periodically measured while tumor volumes were calculated according to the following formula: Tumor Size=0.5×(Diameter)^2×length

rabbit corneal domes = test: Rabbit corneal dome angiogenesis induced by VEGF; type: in vivo; details: VEGF 10 ng with 1 μg peptide, 16 days after operation
Description: To confirm the test results obtained from egg CAM, an experiment was performed using rabbit corneal domes for in vivo angiogenesis testing. New Zealand male rabbits weighing 3 kg (SLC, Japan) were subjected to intramuscular ketamine anesthesia (44 mg/kg), followed by dissecting the corneal domes to a length of 3 mm by use of an operating knife (Bard-Parker—#11). […] 16 days after the operation, angiogenesis was obviously observed and photographs were taken of blood vessels newly formed in the corneal dome (Nikon, FS-2, Japan).

[7] = target: T2, VEGF secreted from HT1080 human fibrosarcoma cells (human), P15692; test: cell-based or functional assay
T2 chain: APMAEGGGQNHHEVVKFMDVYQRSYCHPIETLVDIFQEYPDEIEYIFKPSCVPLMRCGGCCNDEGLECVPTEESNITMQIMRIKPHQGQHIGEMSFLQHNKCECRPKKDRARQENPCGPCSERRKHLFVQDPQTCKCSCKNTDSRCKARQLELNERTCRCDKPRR

[8] = target: T3, VEGF (R&D systems), P15692; test: cell-based or functional assay
T3 chain: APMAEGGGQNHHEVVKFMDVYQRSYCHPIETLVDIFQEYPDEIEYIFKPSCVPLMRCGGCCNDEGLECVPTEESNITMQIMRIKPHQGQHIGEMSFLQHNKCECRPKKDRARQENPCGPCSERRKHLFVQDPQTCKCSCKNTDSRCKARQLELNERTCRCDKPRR

[9] = target: T4, ^125I-labeled VEGF165, P15692; test: 125I-VEGF on plate-fixed peptide, competition; KD computed from the IC50
T4 chain: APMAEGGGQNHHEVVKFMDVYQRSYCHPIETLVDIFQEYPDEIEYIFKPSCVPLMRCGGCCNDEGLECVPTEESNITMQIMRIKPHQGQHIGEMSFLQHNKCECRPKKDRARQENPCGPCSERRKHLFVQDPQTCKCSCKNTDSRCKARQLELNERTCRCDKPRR

[10] = target: T4, ^125I-labeled VEGF165, P15692; test: inhibition of 125I-VEGF binding to its receptors on HUVEC, gamma counting
[11] = VEGF 10 ng/egg alone or with 1 μg sample
[12] = VEGF 10 ng/egg alone or with 1 μg sample, (standard deviation)

With “KKKKKK: control peptide consisting of only lysine [reference compound]” the “Angiogenic activity eggs/total eggs” value [1] was 14/22, the “Angiogenic activity(%)” value [1] was 59.0(1.4) % and the “Angiogenic activity(%)” value ([1]; listed as control peptide) was 59%. For the same molecule, the “metastasis, % of the control group to which only PBS was injected” value ([2]; weak inhibitory activity, measure not specified) was “about 80%”, the “Angiogenic activity eggs/total eggs” value [3, 11] was 8/25 and the “inhibition between labeled VEGF and its receptors” value (VEGF) was “no inhibition was observed”.

With “^125I-labeled VEGF: radioactive iodine-labeled VEGF165 used as ligand” the Kd ([4]; receptor density about 2,000 per cell, read-out: dissociation constant (KD), first kind of receptor) was 3 pM and the Kd ([4]; receptor density about 6,000 per cell, read-out: dissociation constant (KD), other kind of receptor) was 50 pM.

With VEGF the “Angiogenic activity eggs/total eggs” value [3, 11] was 9/27 and the “Angiogenic activity(%)” value [3, 12] was 33.6% and 33.6(3.8) %.

In the case of protamine [reference compound], the “Angiogenic activity eggs/total eggs” value [3, 11] is reported as 5/26, the “Angiogenic activity(%)” value [3, 12] is reported as 18.8(4.1) % and 18.4(4.1) % and the “Angiogenic activity(%)” value ([3]; VEGF with protamine 50 μg/egg as stated in text) is reported as “about 18.8%”.

In the case of “^125I-labeled VEGF165 (from UniProt P15692 27-191) (ligand)”, the Kd [5] is reported as 3 pM.

With “EEFDDA: control peptide of an amino acid sequence EEFDDA [reference compound]” the “metastasis of cancer cells versus tumor injected alone” value ([2]; mouse, in vivo) was “No difference in metastasis”, the “effect on tumor size / growth of human colon carcinoma cells in mice” value [6] was “no effects” and the “VEGF-induced angiogenesis in the rabbit corneal dome” value (rabbit corneal domes) was “had no influence on the VEGF-induced angiogenesis; also recorded: obvious angiogenesis”.

H-RRKRRR-NH2 [peptide of sequence 1 (SEQ ID NO: 1) (NH2-Arg-Arg-Lys-Arg-Arg-Arg-CONH2)] was tested, and the Angiogenic activity(%), egg CAM, HT1080 cancer cells + peptide 0.1 µg (cancer cell alone 76.0, no treatment 18.5) [7] was 36%, the Angiogenic activity(%), egg CAM, VEGF 10 ng + peptide 1 µg (VEGF alone 33.6, water 10.8) [8] was 15.6% and the Kd [9] was 5 µM. The IC50 [10] was 2 µM.

Work on H-RKKRKR-NH2 [peptide of sequence 2 (SEQ ID NO: 2) (NH2-Arg-Lys-Lys-Arg-Lys-Arg-CONH2)] yielded an Angiogenic activity(%), egg CAM, HT1080 cancer cells + peptide 0.1 µg (cancer cell alone 76.0, no treatment 18.5) [7] of 43%, an Angiogenic activity(%), egg CAM, VEGF 10 ng + peptide 1 µg (VEGF alone 33.6, water 10.8) [8] of 15.6% and a Kd [9] of 2 µM. For the same molecule, the IC50 [10] was 3.4 µM.

H-RRRRRR-NH2 [peptide of sequence 3 (SEQ ID NO: 3) (NH2-Arg-Arg-Arg-Arg-Arg-Arg-CONH2)] showed an Angiogenic activity(%), egg CAM, HT1080 cancer cells + peptide 0.1 µg (cancer cell alone 76.0, no treatment 18.5) [7] of 41%, an Angiogenic activity(%), egg CAM, VEGF 10 ng + peptide 1 µg (VEGF alone 33.6, water 10.8) [8] of 15.6% and a Kd [9] of 22 µM. It also gave an IC50 [10] of 3.8 µM.

RKRRKR (modifications not checked) [Table 4 peptide 4 (RKRRKR)] was tested, and the IC50 [10] was 8.5 µM.

Work on RKKRRR (modifications not checked) [Table 4 peptide 7 (RKKRRR)] yielded an IC50 [10] of 6.5 µM.

RKRRRR (modifications not checked) [Table 4 peptide 10 (RKRRRR)] showed an IC50 [10] of 7.8 µM.

Work on RRKRKR (modifications not checked) [Table 4 peptide 2 (RRKRKR)] yielded an IC50 [10] of 6 µM.
